Paper PMC10154330, “Machine learning-driven multifunctional peptide engineering for sustained ocular drug delivery” (Nature Communications, 2023)
Read-outs that look alike come from different tables or passages of the source. Peptide text beside a SMILES is read from it. * marks the point of attachment. X1 = CC(C)[C@H](NC(=O)CCCCCN1C(=O)CC(*)C1=O)C(=O)N[C@@H](CCCNC(N)=O)C(=O)Nc1ccc(C[N+]2=C(Nc3ccc4nccnc4c3Br)NCC2)cc1

Columns and labels:
[1] = test system: melanin nanoparticles (mNPs); test: In vitro melanin binding assay (binding capacity and Kd, RED device, HPLC); design: species or system Sepia officinalis; settings: for Binding Capacity (mole/mg melanin) / Kd: binding capacity and dissociation constant of ocular drugs, melanin
Protocol: The solutions (400 µL) were then mixed thoroughly with 400 µL of 1 mg/mL mNPs in pH 6.5 PBS solution and transferred to the inner reservoir of the rapid equilibrium dialysis (RED) device inserts (8 K MWCO). The outer reservoir was filled with 800 µL of pH 6.5 PBS solution. The samples were incubated on an orbital shaker with temperature control at 37 °C and 300 rpm for 48 h (n = 3). The solutions from outer reservoir (free drug) were than collected and transferred to an autosampler vial for HPLC analysis (Prominence LC2030, Shimadzu, Columbia, MD) with photodiode-array detection (PDA) system. […] The amount of bound drug was used to calculate the binding capacity (mol drug/mg melanin) and the dissociation constant (Kd) as previously described[20],[34].

[2] = In vitro stability of HR97-brimonidine conjugate in human aqueous or vitreous; format: in vitro ADME; settings: for remaining at 24 h, 1 mg/mL / remaining at 168 h, 1 mg/mL / remaining at 336 h, 1 mg/mL / remaining at 672 h, 1 mg/mL: male, human, human aqueous humor (donor eyes, 0.02 µm filtered), stability in human aqueous humor, read-out: Normalized HR97-VC-PAB-brimonidine (%)
Protocol: Two pairs of human donor eyes were obtained from the Lions Gift of Sight under protocol IRB00056984 approved by the Johns Hopkins University School of Medicine Institutional Review Board. Both donors were male with an mean age of 74.5. The post-mortem times ranged from 35–40 h. The eyes were kept at 4 °C during transport and arrived within 48 h post-mortem. The vitreous and aqueous were first isolated and subsequently combined and filtered through the 0.02 µm syringe filter to remove cell debris. HR97-brimonidine (1 mg/mL) was incubated with human aqueous or vitreous (700 µL) at 37 °C (n = 3). On days 0, 1, 7, 14, 21 and 28, 100 µL of the solutions were collected, diluted with 900 µL of acetonitrile, and characterized by HPLC (Prominence LC2030, Shimadzu) with Luna® 5 µm C18(2) 100 Å LC column 250 × 4.6 mm (Phenomenex). The elution flow rate was 1 mL/min and with gradient of 10/90/90/10% solvent B (TFA 0.1% in ACN) in 1/11/13/15 min at λmax = 250 nm for HR97-brimonidine (RT = 4.6 min).

[3] = Ocular safety evaluation / ocular grading after ICM injection; settings: single ICM injection, 200 µg brimonidine equivalent
Protocol: (§1) For the IOP measurements in normotensive rabbits, Dutch Belted rabbits (2–3 kg) were used (n = 5). IOP was measured with a hand-held rebound tonometer icareTONOVET (Vantaa, Finland) in the awake and gently restrained rabbit. Each rabbit was acclimatized to the IOP measurement procedure for at least 5 days to obtain a stable background IOP reading. A mean of three IOP measurements for an individual eye were taken every other day for 6 days (3 times in total) and used as a baseline value. For the ICM injection procedure, rabbits were anesthetized with ketamine/xylazine and received topical anesthesia with 0.5% proparacaine hydrochloride. A corneal pre-puncture was performed with a 30 G needle, followed with a single bolus ICM injection of 200 µg (mass of brimonidine) of HR97-brimonidine or brimonidine tartrate solution in 100 µL saline using a 28 G needle. After the procedure, topical bacitracin-neomycin-polymyxin ophthalmic ointment was applied to both eyes to prevent infection and dry eyes. On day 7, an ophthalmologist masked to treatment evaluate the HR97-brimonidine injected eyes with the following items: functionality of lids, lashes, conjunctiva, cornea transparency, pigmentation of corneal endothelium, depth of anterior chambers, inflammation, fibrin strands, and symmetry of the lens[113]. […] In a separate study, a corneal pre-puncture was performed with a 30 G needle, followed with a single bolus ICM injection of 200 µg (mass of brimonidine) containing a physical mixture of unconjugated HR97 and brimonidine tartrate (HR97 + brimonidine), the equivalent amount of HR97 peptide alone, or saline alone in 100 µL saline. On day 7, day 14, day 21, and day 28, an ophthalmologist masked to treatment performed the same safety evaluations described above. IOP was measured on days 2, 3, 4, 5, 6, 7, 8, 10, 12, 14, 16, 18, and 20 after the ICM injection, and change in IOP from the baseline (ΔIOP) was reported. The mean of three IOP measurements was taken for each eye by one observer, and then confirmed by a masked observer. Alternatively, a single topical eye drop (Alphagan® P 0.1%, 50 µL) was given (n = 5). The IOP were measured immediately before the topical dosing (0 h), and at 2, 4, 6 and 8 h after the eyedrop administration. For the pharmacokinetics studies, rabbits (n = 4 per group) received a single ICM injection with 200 µg (mass of brimonidine) HR97-brimonidine as described above. Rabbits were sacrificed 1, 7, 14, 28 days after the injection, and iris, aqueous, and retina were collected for measuring the brimonidine concentration.

[4] = test system: human cathepsins B, K, L, and S; test: Cathepsin cleavage assay
intraocular pressure = test: IOP measurement in normotensive Dutch Belted rabbits; format: in vivo
Protocol: as §1

[5] = Brimonidine in ocular tissues after ICM injection (LC-MS/MS); settings: LC-MS/MS
Protocol: as §1
Brimonidine concentrations in ocular tissues were measured by liquid chromatography-tandem mass spectrometry (LC-MS/MS) as previously described. All samples were collected in pre-weighed tubes and stored at −80 °C until processing for analysis. Tissue samples were homogenized in 100–600 μL 1 × PBS using a Bullet Blender® (Next Advance, Inc, Troy, NY, USA) before extraction. Brimonidine were extracted from 15 to 50 μL of tissue homogenates with 50 μL of acetonitrile containing 50/50/2.5 ng/mL of the internal standards. The top layer was then transferred to an autosampler vial for LC-MS/MS analysis after centrifugation. All ocular tissue samples were analyzed using a 1 × PBS standard curve for brimonidine. […] The column effluent was monitored using a 5500 mass-spectrometric detector (Sciex) using electrospray ionization operating in positive mode. The mobile phase A was water containing 0.1% formic acid and mobile phase B was acetonitrile containing 0.1% formic acid. The gradient started with mobile phase B held at 20% for 0.5 min and increased to 100% over 0.5 min; 100% mobile phase B was held for 1 min and then returned to 20% mobile phase B and allowed to equilibrate for 1 min.

[6] = 28 days after single ICM injection of HR97-brimonidine (200 µg brimonidine equivalent), n = 3-4

## CCN(CC)CCCC(C)Nc1ccnc2cc(Cl)ccc12 (stereo not shown) [Chloroquine]
[1]
  Binding Capacity (mole/mg melanin): 3.8e-7 mole/mg melanin
  Kd: 76 µM

## CC(C)[C@H](NC(=O)CCCCCN1C(=O)CC(SC[C@H](NC(=O)[C@H](CCCNC(=N)N)NC(=O)[C@@H]2CCCN2C(=O)[C@H](CCCCN)NC(=O)[C@H](CCCNC(=N)N)NC(=O)[C@H](CCCCN)NC(=O)[C@H](CCCNC(=N)N)NC(=O)[C@H](CCCNC(=N)N)NC(=O)[C@H](CCCCN)NC(=O)CNC(=O)[C@H](CO)NC(=O)[C@@H](N)Cc2ccccc2)C(=O)O)C1=O)C(=O)N[C@@H](CCCNC(N)=O)C(=O)Nc1ccc(C[N+]2=C(Nc3ccc4nccnc4c3Br)NCC2)cc1 (stereo partly shown) [HR97-VC-PAB-brimonidine] (H-FSGKRRKRKPRC(X1)-OH; N-terminus and C-terminus assumed)
[2]; day 1, replicate 1
  remaining at 24 h, 1 mg/mL: 99.1%
[2]; day 1, replicate 2
  remaining at 24 h, 1 mg/mL: 93.5%
[2]; day 1, replicate 3
  remaining at 24 h, 1 mg/mL: 95.5%
[2]; day 7, replicate 1
  remaining at 168 h, 1 mg/mL: 90.8%
[2]; day 7, replicate 2
  remaining at 168 h, 1 mg/mL: 101%
[2]; day 7, replicate 3
  remaining at 168 h, 1 mg/mL: 96.4%
[2]; day 14, replicate 1
  remaining at 336 h, 1 mg/mL: 92.6%
[2]; day 14, replicate 2
  remaining at 336 h, 1 mg/mL: 95.3%
[2]; day 14, replicate 3
  remaining at 336 h, 1 mg/mL: 93.9%
[2]; day 28, replicate 1
  remaining at 672 h, 1 mg/mL: 88.5%
[2]; day 28, replicate 2
  remaining at 672 h, 1 mg/mL: 95%
[2]; day 28, replicate 3
  remaining at 672 h, 1 mg/mL: 92.3%

## CC12CC3CC(C)(C1)CC(N)(C3)C2 [Memantine]
[1]
  Binding Capacity (mole/mg melanin): 2.07e-7 mole/mg melanin
  Kd: 804 µM

## COCCc1ccc(OCC(O)CNC(C)C)cc1 (stereo not shown) [Metoprolol]
[1]
  Binding Capacity (mole/mg melanin): 2.69E-08 mole/mg melanin
  Kd: 495 µM

## CCNCCNC(=O)c1c(C)[nH]c(/C=C2\C(=O)Nc3ccc(F)cc32)c1C [N-Desethyl Sunitinib]
[1]
  Binding Capacity (mole/mg melanin): 2.61e-6 mole/mg melanin
  Kd: 2.13 µM

## CC(C)(C)NC[C@H](O)COc1nsnc1N1CCOCC1 [Timolol]
[1]
  Binding Capacity (mole/mg melanin): 3.9e-8 mole/mg melanin
  Kd: 120 µM

## CC1(C)O[C@@H]2C[C@H]3[C@@H]4CCC5=CC(=O)C=C[C@]5(C)[C@@]4(F)[C@@H](O)C[C@]3(C)[C@]2(C(=O)CO)O1 [Triamcinolone Acetonide]
[1]
  Binding Capacity (mole/mg melanin): 2.24E-08 mole/mg melanin
  Kd: 12.5 µM

## FSGKRRKRKPRC [HR97-brimonidine, HR97 peptide conjugated to brimonidine via a quaternary-ammonium traceless linker (MC-Val-Cit-PAB)]
[3]
  ocular toxicity, ophthalmologist evaluation on day 7: no apparent inflammation or fibrin strands
[2]; 1 mg/mL in human aqueous (donor eyes, 0.02 µm filtered), 37 °C, over 28 days, HPLC 250 nm, normalized to day 0, mean of n = 3
  brimonidine released from the conjugate in human aqueous fluid: ~ 7%
[4]; replicate 1
  cathepsin cleavage assay, Cathepsin: 47
[4]; replicate 2
  cathepsin cleavage assay, Cathepsin: 58
[4]; replicate 3
  cathepsin cleavage assay, Cathepsin: 42
[4]; conjugate 200 μM diluted 1:1 with 100 mM citrate buffer pH 5.5, 5 mM cysteine, cathepsins B, K, L, S 150 nM each, within 48 h, 37 °C, HPLC, normalized to 0 h, n = 3
  brimonidine liberated with human cathepsin cocktails: ~ 52%
Intraocular pressure; 20-day measurement period after ICM injection, n = 5, p < 0.001
  AUClast of cumulative ΔIOP, fold greater compared to brimonidine solution: ~ 17 fold
Intraocular pressure; single ICM injection
  time during which mean ΔIOP remained significantly larger than with brimonidine solution or physical mixture: up to 14 days
Intraocular pressure; single ICM injection, 200 µg brimonidine equivalent, n = 5
  peak ΔIOP at 2 days: −4.9 ± 0.46 mmHg
Intraocular pressure; single ICM injection, n = 5 per group
  time for the mean ΔIOP to return to baseline: 20 days
Intraocular pressure; single ICM injection, normotensive rabbits
  duration of IOP lowering: up to 18 days
[5]; [6]
  brimonidine concentration in aqueous humor: 0.4 ng/g
  brimonidine concentration in iris: 980 ng/g
  brimonidine concentration in retina: 8.3 ng/g
[5]; day 7 after single ICM injection of HR97-brimonidine
  brimonidine concentration in the aqueous: 83.3 ng/g
[5]; day 14 after single ICM injection of HR97-brimonidine
  brimonidine concentration in the aqueous: 3.9 ng/g
[1]
  Binding Capacity (mole/mg melanin): 5.9e-7 mole/mg melanin
  Kd: 4.36 µM
[1]; versus brimonidine
  increase in the in vitro melanin binding capacity of brimonidine by conjugation to HR97: ~ 10 fold
